Experimental findings from article PMC6030200 (2018) are described below.

Holding throughout (test): SPR
(In general: Surface plasmon resonance follows binding to a sensor surface in real time, without labels.)

Assay [1] deals with T1, recombinant human integrin α6β4 (human, UniProt P23229;P16144).
T1 chain 1: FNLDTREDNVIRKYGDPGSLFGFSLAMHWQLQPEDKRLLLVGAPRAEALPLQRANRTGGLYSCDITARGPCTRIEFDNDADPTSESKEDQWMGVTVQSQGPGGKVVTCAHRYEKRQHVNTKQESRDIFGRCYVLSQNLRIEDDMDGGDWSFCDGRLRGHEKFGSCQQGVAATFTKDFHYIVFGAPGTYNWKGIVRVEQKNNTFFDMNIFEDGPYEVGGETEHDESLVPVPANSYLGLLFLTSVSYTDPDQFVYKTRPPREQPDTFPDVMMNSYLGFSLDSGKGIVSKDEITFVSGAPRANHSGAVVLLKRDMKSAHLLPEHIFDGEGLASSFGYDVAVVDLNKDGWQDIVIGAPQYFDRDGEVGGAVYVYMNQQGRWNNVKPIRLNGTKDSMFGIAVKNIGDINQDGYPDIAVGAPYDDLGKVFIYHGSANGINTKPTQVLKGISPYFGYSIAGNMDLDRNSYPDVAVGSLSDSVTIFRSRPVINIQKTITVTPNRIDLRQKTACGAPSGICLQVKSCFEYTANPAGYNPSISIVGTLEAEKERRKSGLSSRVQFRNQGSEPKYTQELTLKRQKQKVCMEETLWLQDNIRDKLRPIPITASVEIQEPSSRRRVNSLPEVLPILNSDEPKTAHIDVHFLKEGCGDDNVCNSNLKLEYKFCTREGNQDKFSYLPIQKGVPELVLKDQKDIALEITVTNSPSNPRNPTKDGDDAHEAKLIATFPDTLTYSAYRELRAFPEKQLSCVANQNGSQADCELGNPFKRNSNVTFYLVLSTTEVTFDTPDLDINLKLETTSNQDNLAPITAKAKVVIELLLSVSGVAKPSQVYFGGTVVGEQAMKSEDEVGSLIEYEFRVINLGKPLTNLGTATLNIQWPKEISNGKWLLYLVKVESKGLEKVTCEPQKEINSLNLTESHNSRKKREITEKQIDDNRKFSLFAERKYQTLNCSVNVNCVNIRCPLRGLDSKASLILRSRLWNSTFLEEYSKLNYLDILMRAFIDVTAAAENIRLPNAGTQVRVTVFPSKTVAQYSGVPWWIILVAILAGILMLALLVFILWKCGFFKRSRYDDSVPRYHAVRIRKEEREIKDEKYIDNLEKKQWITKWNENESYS
T1 chain 2: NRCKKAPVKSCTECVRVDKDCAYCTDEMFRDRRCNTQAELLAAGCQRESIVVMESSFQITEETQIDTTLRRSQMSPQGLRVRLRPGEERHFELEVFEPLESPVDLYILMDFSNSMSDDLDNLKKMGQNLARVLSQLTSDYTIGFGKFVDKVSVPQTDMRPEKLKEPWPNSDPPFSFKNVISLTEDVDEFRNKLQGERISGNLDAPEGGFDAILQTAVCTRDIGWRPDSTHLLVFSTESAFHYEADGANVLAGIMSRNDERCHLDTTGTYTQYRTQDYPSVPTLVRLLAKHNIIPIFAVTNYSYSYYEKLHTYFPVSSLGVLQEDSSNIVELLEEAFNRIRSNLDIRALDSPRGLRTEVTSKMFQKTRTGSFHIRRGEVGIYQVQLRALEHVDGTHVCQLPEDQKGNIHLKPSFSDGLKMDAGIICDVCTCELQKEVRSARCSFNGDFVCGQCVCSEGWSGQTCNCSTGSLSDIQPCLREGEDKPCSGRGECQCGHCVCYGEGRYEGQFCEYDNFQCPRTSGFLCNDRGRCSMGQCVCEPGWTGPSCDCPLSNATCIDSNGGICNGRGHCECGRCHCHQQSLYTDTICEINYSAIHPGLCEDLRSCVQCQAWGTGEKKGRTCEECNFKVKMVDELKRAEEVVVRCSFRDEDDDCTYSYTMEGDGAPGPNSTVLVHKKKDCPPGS

The target in assay [2] is T1, recombinant human integrin α6β4.
For assay [3], the target named is T2, recombinant human integrin α6β1 (human, UniProt P23229;P05556).
For assay [4], the target named is T2, recombinant human integrin α6β1. This is another data set of the same source.

B1: HAdV-40 penton base protein, recombinant, soluble (natural protein)
chain: MRRAVGVPPVMAYAEGPPPSYESVMETADLPATLQALHVPPRYLGPTEGRNSIRYSELAPLYDTTRVYLVDNKSADIASLNYQNDHSNFQTTVVQNNDFTPTEAGTQTINFDDRSRWGGDLKTILRTNMPNINEFMSTNKFRARVMVEKVNRKTNAPRYEWFEFTLPEGNYSETMTIDLMNNAIVDNYLAVGRQNGVLESDIGVKFDTRNFRLGWDPVTKLVMPGVYTNEAFHPDIVLLPGCGVDFTQSRLNNLLGIRKRMPFQKGFQIMYEDLEGGNIPALLDVEKYEASIKEAQEIRGADFKPNPQDLEIVPVEKDSKERSYNLLEGDKNNTAYRSWFLAYNYGDAEKGVKSWTLLTTTDVTCGSQQVYWSLPDMMQDPVTFRPSTQVSNYPVVGVELLPVHAKSFYNEQAVYSQLIRQSTALTHIFNRFPENQILVRPPAPTITTVSENVPALTDHGTLPLRSSISGVQRVTITDARRRTCPYVHKALGIVAPKVLSSRTF
For the molecule B1, the koff (as a rule, the rate constant with which the complex falls apart) in assay [1] was 0.0049 s⁻¹. Further, the values for the Kd in assay [2] and in assay [3] were 32.7 nM and 426 nM, respectively.

B2: HAdV-41 penton base protein, recombinant, soluble (natural protein)
chain: MRRAVGVPPVMAYAEGPPPSYESVMGSADSPATLEALYVPPRYLGPTEGRNSIRYSELAPLYDTTRVYLVDNKSADIASLNYQNDHSNFQTTVVQNNDFTPAEAGTQTINFDERSRWGADLKTILRTNMPNINEFMSTNKFKARLMVEKKNKETGLPRYEWFEFTLPEGNYSETMTIDLMNNAIVDNYLEVGRQNGVLESDIGVKFDTRNFRLGWDPVTKLVMPGVYTNEAFHPDIVLLPGCGVDFTQSRLSNLLGIRKRLPFQEGFQIMYEDLEGGNIPALLDVAKYEASIQKAKEEGKEIGDDTFATRPQDLVIEPVAKDSKNRSYNLLPNDQNNTAYRSWFLAYNYGDPKKGVQSWTLLTTADVTCGSQQVYWSLPDMMQDPVTFRPSTQVSNYPVVGVELLPVHAKSFYNEQAVYSQLIRQSTALTHVFNRFPENQILVRPPAPTITTVSENVPALTDHGTLPLRSSISGVQRVTITDARRRTCPYVHKALGIVAPKVLSSRTF
Turning to B2, the koff in assay [1] came out at 0.022 s⁻¹; in assay [4], 0.011 s⁻¹. In addition, the dissociation constant Kd (in general, the equilibrium constant for the complex coming apart) in assay [2] is 41.2 nM; in assay [3], 473 nM.

B3: HAdV-5 penton base protein, recombinant, soluble (natural protein)
chain: MRRAAMYEEGPPPSYESVVSAAPVAAALGSPFDAPLDPPFVPPRYLRPTGGRNSIRYSELAPLFDTTRVYLVDNKSTDVASLNYQNDHSNFLTTVIQNNDYSPGEASTQTINLDDRSHWGGDLKTILHTNMPNVNEFMFTNKFKARVMVSRLPTKDNQVELKYEWVEFTLPEGNYSETMTIDLMNNAIVEHYLKVGRQNGVLESDIGVKFDTRNFRLGFDPVTGLVMPGVYTNEAFHPDIILLPGCGVDFTHSRLSNLLGIRKRQPFQEGFRITYDDLEGGNIPALLDVDAYQASLKDDTEQGGGGAGGSNSSGSGAEENSNAAAAAMQPVEDMNDHAIRGDTFATRAEEKRAEAEAAAEAAAPAAQPEVEKPQKKPVIKPLTEDSKKRSYNLISNDSTFTQYRSWYLAYNYGDPQTGIRSWTLLCTPDVTCGSEQVYWSLPDMMQDPVTFRSTRQISNFPVVGAELLPVHSKSFYNDQAVYSQLIRQFTSLTHVFNRFPENQILARPPAPTITTVSENVPALTDHGTLPLRNSIGGVQRVTITDARRRTCPYVYKALGIVSPRVLSSRTF
As to B3, the koff came to 0.0045 s⁻¹ in assay [1] and 0.0059 s⁻¹ in assay [4]. The Kd turned out to be 95 nM in assay [2] and 1560 nM in assay [3].
